We go through three substances from paper PMC6614362.

The target in test [1] is RsbR (Listeria monocytogenes stressosome component) (L. monocytogenes). The test is described as follows: cryo-EM structure; stressosome assembled from purified RsbR, RsbS and RsbT with 1 mM ADP; 20 µg/ml on Quantifoil grids; maps at 4.48 Å (no symmetry) and 3.38 Å (icosahedral symmetry, turrets masked out).
Test [2] deals with RsbS (Listeria monocytogenes stressosome component) (L. monocytogenes). As to the kind of experiment: SEC; purified RsbR and RsbS mixed, complex taken from Superose 6 void volume, combined with excess RsbT (4 °C, 4 h), Superose 6 in 20 mM Tris HCl pH 8.5, 150 mM NaCl, 1 mM ADP, 1 mM DTT; fractions analysed by SDS-PAGE.
The target is the same in test [3]. As to the kind of experiment: cryo-EM structure; stressosome assembled from purified RsbR, RsbS and RsbT with 1 mM ADP; 20 µg/ml on Quantifoil grids; maps at 4.48 Å (no symmetry) and 3.38 Å (icosahedral symmetry, turrets masked out).
Test [4] concerns the target RsbR:RsbS complex (preformed, purified by gel filtration) (L. monocytogenes). The test is described as follows: SEC; purified RsbR and RsbS mixed, complex taken from Superose 6 void volume, combined with excess RsbT (4 °C, 4 h), Superose 6 in 20 mM Tris HCl pH 8.5, 150 mM NaCl, 1 mM ADP, 1 mM DTT; fractions analysed by SDS-PAGE. (SEC sorts molecules by how far they enter the pores of the column.)

Usually stoichiometry N stands for a count of units in the complex or per binding partner. “RsbR (Listeria monocytogenes stressosome component) (natural protein)” had a stoichiometry N in test [1] of 2. For the same substance, the stoichiometry N (RsbR per RsbS) in test [2] came out at 2. As to “RsbS (Listeria monocytogenes stressosome component) (natural protein)”, the stoichiometry N in test [3] turned out to be 2. Turning to “RsbT (Listeria monocytogenes stressosome kinase) (enzyme)”, in test [4], the stoichiometry N (RsbT per RsbS (RsbR:RsbS:RsbT 2:1:1)) came to 1.
